The values below come from article PMC6523895, “Evidence of Destabilization of the Human Thymidylate Synthase (hTS) Dimeric Structure Induced by the Interface Mutation Q62R” (Biomolecules, 2019).

Substitutions are numbered along the chain they refer to. Names and notes keep the numbering of the source.

Series [1] concerns the molecule itself. Description: SEC; HiLoad 16/600 Superdex 75pg, last step of purification, sample dialysed in buffer A (50 mM HEPES pH 7.5, 30 mM NaCl); profile not shown. Background: In gel filtration, larger molecules generally elute earlier.
Series [2] deals with the molecule itself. Description: crystal structure; X-ray, 2.55 A, space group P2(1)22(1), four homodimers (eight subunits) in the asymmetric unit; crystals from 2.0-2.2 M ammonium sulfate, 100 mM bicine pH 9.0, with 20 mM beta-mercaptoethanol, 20 C.

B1: His6-tag human thymidylate synthase (HT-hTS), wild type (enzyme, UniProt P04818 1-313, looked up)
chain: MPVAGSELPRRPLPPAAQERDAEPRPPHGELQYLGQIQHILRCGVRKDDRTGTGTLSVFGMQARYSLRDEFPLLTTKRVFWKGVLEELLWFIKGSTNAKELSSKGVKIWDANGSRDFLDSLGFSTREEGDLGPVYGFQWRHFGAEYRDMESDYSGQGVDQLQRVIDTIKTNPDDRRIIMCAWNPRDLPLMALPPCHALCQFYVVNSELSCQLYQRSGDMGLGVPFNIASYALLTYMIAHITGLKPGDFIHTLGDAHIYLNHIEPLKIQLQREPRPFPKLRILRKVEKIDDFKAEDFQIEGYNPHPTIKMEMAV
notes: human thymidylate synthase (TS, EC 2.1.1.45); The non-cleavable N-terminal His6-tag comes from the pQE80L plasmid; also called wild-type hTS; human TS; not shown: His6, N-terminal, kept
As usually defined, the stoichiometry N is a count of units in the complex or per binding partner. As to B1, the “stoichiometry N” value in series [1] amounted to 2.

B2: His6-tag human thymidylate synthase variant Q62R (HT-hTS Q62R) (enzyme, UniProt P04818 1-313, looked up)
chain: B1 chain with Q62R
modifications: Cys195 modified as S,S-(2-hydroxyethyl)thiocysteine (CME195) in the crystal, by reaction with beta-mercaptoethanol
notes: human thymidylate synthase (TS, EC 2.1.1.45) with Gln62 replaced by arginine; plasmid pQE80L-hTS-Q62R made by site-directed mutagenesis of pQE80L-hTS; Non-cleavable N-terminal His6-tag (twelve residues belong to the tag); in the crystal the first twenty-five N-terminal residues and the tag are not traced; also called Q62R variant; not shown: His6, N-terminal, kept
In the case of B2, the binding result in series [2] is “binds”.
